Source: publication PMC11997501 (Molecular Therapy, 2025)

Target: the molecule itself
Assay: western blot after SDS-PAGE of partially denatured samples

B1: murine MLC1 (natural protein, mouse (endogenous in C57BL/6J brain), UniProt Q8VHK5 1-382, looked up)
chain: MTREGQFREELGYDRMPTLERGRQDAGRQDPGSYTPDSKPKDLQLSKRLPPCFSYKTWVFSVLMGSCLLVTSGFSLYLGNVFPSEMDYLRCAAGSCIPSAIVSFAVGRRNVSAIPNFQILFVSTFAVTTTCLIWFGCKLILNPSAININFNLILLLLLELLMAATVIISARSSEEPCKKKKGSISDGSNILDEVTFPARVLKSYSVVEVIAGVSAVLGGVIALNVEEAVSGPHLSVTFFWILVACFPSAIASHVTAECPSKCLVEVLIAISSLTSPLLFTASGYLSFSVMRVVEIFKDYPPAIKSYDVLLLLLLLLLLLQGGLNTGTAIQCVSFKVSARLQAASWDPQSCPQERPAGEVVRGPLKEFDKEKAWRAVVVQMAQ
In the case of B1, the “stoichiometry N” value is reported as 2.
